Assay [1] concerns the target Toxoplasma gondii Gat1 (Toxoplasma gondii). Briefly: SEC + AUC.
The target in assay [2] is Pythium ultimum Gat1 (Pythium ultimum). Put plainly: AUC.
Assay [3] shares this target. Briefly: AUC. This is another data set of the same source.

Read-outs that look alike come from different tables or passages of the source. Bounds are passed on as bounds.

For Toxoplasma gondii Gat1 (enzyme), the stoichiometry N in assay [1] turned out to be 2.
In the case of Pythium ultimum Gat1 (enzyme), the stoichiometry N in assay [2] and in assay [3] was 2 throughout. Further, the fold higher dimer affinity than Oc-glycogenin-1 (reported Kd 0.85 µM) in assay [3] is > 2 fold.

The record behind these values is article doi:10.1101/764241.
